From patent US20220402985A1 come the findings set out here.

The target of experiment [1] is ErbB3 on rat Schwann cells (rat) (UniProt Q62799). In words: cell-based or functional assay.
In experiment [2] the target is ErbB4 on neonatal rat cardiomyocytes (rat) (UniProt Q62956). The experiment can be described thus: cell-based or functional assay.
ErbB4 on neonatal rat cardiomyocytes (rat), sequence (Q62956 26-1308): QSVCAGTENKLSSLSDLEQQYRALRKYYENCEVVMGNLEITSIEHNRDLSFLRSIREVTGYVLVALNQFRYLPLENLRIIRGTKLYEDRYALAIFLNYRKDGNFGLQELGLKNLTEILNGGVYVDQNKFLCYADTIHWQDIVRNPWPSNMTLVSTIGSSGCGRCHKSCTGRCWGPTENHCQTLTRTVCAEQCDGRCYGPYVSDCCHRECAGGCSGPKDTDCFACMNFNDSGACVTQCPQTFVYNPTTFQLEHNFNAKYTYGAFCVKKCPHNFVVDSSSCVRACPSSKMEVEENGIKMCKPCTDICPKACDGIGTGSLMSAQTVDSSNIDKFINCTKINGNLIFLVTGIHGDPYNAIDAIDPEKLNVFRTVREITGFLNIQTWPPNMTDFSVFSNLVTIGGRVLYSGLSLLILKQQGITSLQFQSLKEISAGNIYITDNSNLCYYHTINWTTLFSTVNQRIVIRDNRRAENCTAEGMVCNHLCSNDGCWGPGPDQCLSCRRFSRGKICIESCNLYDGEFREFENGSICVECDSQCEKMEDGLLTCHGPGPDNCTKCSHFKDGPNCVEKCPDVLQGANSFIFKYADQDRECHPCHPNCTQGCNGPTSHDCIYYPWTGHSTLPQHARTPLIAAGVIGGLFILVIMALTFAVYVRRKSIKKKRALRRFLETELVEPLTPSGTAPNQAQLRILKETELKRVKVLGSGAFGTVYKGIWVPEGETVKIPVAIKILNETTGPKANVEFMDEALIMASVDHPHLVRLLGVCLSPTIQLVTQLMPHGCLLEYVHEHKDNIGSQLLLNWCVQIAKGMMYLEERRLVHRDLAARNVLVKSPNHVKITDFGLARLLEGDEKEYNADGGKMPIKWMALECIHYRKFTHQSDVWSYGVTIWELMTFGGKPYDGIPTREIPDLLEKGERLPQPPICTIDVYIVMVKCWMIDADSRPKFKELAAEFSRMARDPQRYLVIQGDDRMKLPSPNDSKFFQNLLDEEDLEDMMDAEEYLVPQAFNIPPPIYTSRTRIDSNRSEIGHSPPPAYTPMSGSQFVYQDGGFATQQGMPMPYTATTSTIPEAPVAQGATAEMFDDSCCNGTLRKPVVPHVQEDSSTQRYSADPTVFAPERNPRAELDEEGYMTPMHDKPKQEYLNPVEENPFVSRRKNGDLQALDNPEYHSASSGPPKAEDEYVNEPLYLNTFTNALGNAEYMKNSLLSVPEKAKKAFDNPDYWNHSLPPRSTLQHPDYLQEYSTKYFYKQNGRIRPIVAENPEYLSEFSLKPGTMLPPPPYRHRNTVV

ErbB3 on rat Schwann cells (rat), sequence (Q62799 20-1339): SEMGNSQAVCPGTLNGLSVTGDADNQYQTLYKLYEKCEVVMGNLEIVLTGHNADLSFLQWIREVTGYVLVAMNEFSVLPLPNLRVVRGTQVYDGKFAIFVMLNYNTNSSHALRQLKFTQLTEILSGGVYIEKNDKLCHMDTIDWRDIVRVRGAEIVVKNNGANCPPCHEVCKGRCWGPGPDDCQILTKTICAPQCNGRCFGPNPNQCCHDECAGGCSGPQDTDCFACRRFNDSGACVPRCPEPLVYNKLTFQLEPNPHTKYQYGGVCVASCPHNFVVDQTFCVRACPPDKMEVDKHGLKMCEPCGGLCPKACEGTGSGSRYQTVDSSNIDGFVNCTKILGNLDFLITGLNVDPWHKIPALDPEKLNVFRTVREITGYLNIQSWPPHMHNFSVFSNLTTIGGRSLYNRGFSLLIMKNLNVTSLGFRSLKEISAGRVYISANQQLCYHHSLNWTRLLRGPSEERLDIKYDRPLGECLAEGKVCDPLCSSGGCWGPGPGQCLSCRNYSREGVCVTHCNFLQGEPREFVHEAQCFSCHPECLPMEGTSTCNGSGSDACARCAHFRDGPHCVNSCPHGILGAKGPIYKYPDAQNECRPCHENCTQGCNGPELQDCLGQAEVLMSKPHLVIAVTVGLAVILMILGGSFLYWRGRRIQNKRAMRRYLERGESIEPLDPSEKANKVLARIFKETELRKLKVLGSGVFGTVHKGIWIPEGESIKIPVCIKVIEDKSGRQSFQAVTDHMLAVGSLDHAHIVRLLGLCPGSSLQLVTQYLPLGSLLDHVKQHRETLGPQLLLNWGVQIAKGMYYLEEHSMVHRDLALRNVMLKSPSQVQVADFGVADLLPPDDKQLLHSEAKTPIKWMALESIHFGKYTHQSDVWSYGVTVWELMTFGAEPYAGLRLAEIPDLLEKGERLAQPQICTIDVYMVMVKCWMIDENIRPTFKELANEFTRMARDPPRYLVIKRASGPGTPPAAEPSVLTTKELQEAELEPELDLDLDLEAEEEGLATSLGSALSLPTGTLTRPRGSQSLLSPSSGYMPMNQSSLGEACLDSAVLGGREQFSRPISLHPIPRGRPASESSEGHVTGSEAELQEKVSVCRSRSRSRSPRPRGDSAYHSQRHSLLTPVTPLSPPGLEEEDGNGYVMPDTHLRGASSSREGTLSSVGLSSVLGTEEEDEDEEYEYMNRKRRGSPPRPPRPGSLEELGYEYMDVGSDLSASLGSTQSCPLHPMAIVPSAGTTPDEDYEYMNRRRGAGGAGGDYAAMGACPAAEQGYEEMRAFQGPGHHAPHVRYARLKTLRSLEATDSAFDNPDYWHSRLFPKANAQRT

B1: huNRG1(S177-F229)(NRGE1D)::1KmodT482V, M493L)::huFcSEFL2 (Pb) (Fc fusion)
chain: SHLVKCGESHKSFCVNGGECYMVEGSSIPSRYLCKCPNEFTGDRCQEDFMASFGSGSATGGSGSVASSGSGSATHLDKTHTCPPCPAPELLGGPSVFLFPPKPKDTLMISRTPEVTCVVVDVSHEDPEVKFNWYVDGVEVHNAKTKPCEEQYGSTYRCVSVLTVLHQDWLNGKEYKCKVSNKALPAPIEKTISKAKGQPREPQVYTLPPSREEMTKNQVSLTCLVKGFYPSDIAVEWESNGQPENNYKTTPPVLDSDGSFFLYSKLTVDKSRWQQGNVFSCSVMHEALHNHYTQKSLSLSPGK
With B1, in experiment [1], the Schwann cells (SC) (ErbB3) Avg EC50 is > 10000 nM. Moreover, in experiment [2], the CM % Agonism AVG was 83.4%, the Cardiomyocyte (CM) (ErbB4) Avg EC50 came to 0.34 nM and the Selectivity SC/CM was > 10000.

B2: huNRG1(S177-Q237)(1A1)::GG::huFcSEFL2 (Pb) (Fc fusion)
chain: SHLVKCGESEKSFCVNGGECYVIEDSSIPSRFLCKCPNEFTGDRCQNVFLASFYKAEELYQGGDKTHTCPPCPAPELLGGPSVFLFPPKPKDTLMISRTPEVTCVVVDVSHEDPEVKFNWYVDGVEVHNAKTKPCEEQYGSTYRCVSVLTVLHQDWLNGKEYKCKVSNKALPAPIEKTISKAKGQPREPQVYTLPPSREEMTKNQVSLTCLVKGFYPSDIAVEWESNGQPENNYKTTPPVLDSDGSFFLYSKLTVDKSRWQQGNVFSCSVMHEALHNHYTQKSLSLSPGK
B2 showed a Schwann cells (SC) (ErbB3) Avg EC50 in experiment [1] of 9.11 nM. In experiment [2], this molecule showed a Cardiomyocyte (CM) (ErbB4) Avg EC50 of 0.133 nM and a Selectivity SC/CM of 69.

B3: huNRG1(S177-Q237)(1D10)::GG::huFcSEFL2 (Pb) (Fc fusion)
chain: SHLVKCAERDKTFCVNGGECYMIEDLSIPSRYLCKCPNEFTGDRCQKDFMASFYKAEELYQGGDKTHTCPPCPAPELLGGPSVFLFPPKPKDTLMISRTPEVTCVVVDVSHEDPEVKFNWYVDGVEVHNAKTKPCEEQYGSTYRCVSVLTVLHQDWLNGKEYKCKVSNKALPAPIEKTISKAKGQPREPQVYTLPPSREEMTKNQVSLTCLVKGFYPSDIAVEWESNGQPENNYKTTPPVLDSDGSFFLYSKLTVDKSRWQQGNVFSCSVMHEALHNHYTQKSLSLSPGK
With B3, the Schwann cells (SC) (ErbB3) Avg EC50 in experiment [1] is > 3000 nM. Moreover, in experiment [2], the Cardiomyocyte (CM) (ErbB4) Avg EC50 was 0.741 nM and the Selectivity SC/CM is > 4000.

B4: huNRG1(S177-Q237)(1B9)::GG::huFcSEFL2 (Pb) (Fc fusion)
chain: SHLVKCAEKHKSFCVNGGECFMVEDLSIPSRYLCKCPNEFTGDRCQDVFMASFYKAEELYQGGDKTHTCPPCPAPELLGGPSVFLFPPKPKDTLMISRTPEVTCVVVDVSHEDPEVKFNWYVDGVEVHNAKTKPCEEQYGSTYRCVSVLTVLHQDWLNGKEYKCKVSNKALPAPIEKTISKAKGQPREPQVYTLPPSREEMTKNQVSLTCLVKGFYPSDIAVEWESNGQPENNYKTTPPVLDSDGSFFLYSKLTVDKSRWQQGNVFSCSVMHEALHNHYTQKSLSLSPGK
B4 showed a Schwann cells (SC) (ErbB3) Avg EC50 in experiment [1] of 1000 nM. In experiment [2], the CM % Agonism AVG is < 50%, the Cardiomyocyte (CM) (ErbB4) Avg EC50 was 1.92 nM and the Selectivity SC/CM is 520.

B5: huNRG1(S177-Q237)(1C11)::GG::huFcSEFL2 (Pb) (Fc fusion)
chain: SHLVKCGEKEKTFCVNGGECYMVERPSIPSRFLCKCPNEFTGDRCQKFFMASFYKAEELYQGGDKTHTCPPCPAPELLGGPSVFLFPPKPKDTLMISRTPEVTCVVVDVSHEDPEVKFNWYVDGVEVHNAKTKPCEEQYGSTYRCVSVLTVLHQDWLNGKEYKCKVSNKALPAPIEKTISKAKGQPREPQVYTLPPSREEMTKNQVSLTCLVKGFYPSDIAVEWESNGQPENNYKTTPPVLDSDGSFFLYSKLTVDKSRWQQGNVFSCSVMHEALHNHYTQKSLSLSPGK
On to B5, for which the Schwann cells (SC) (ErbB3) Avg EC50 in experiment [1] was 87 nM. Moreover, in experiment [2], the Cardiomyocyte (CM) (ErbB4) Avg EC50 was 1.1 nM and the Selectivity SC/CM worked out at 79.

B6: huNRG1(S177-Q237)(1B4)::GG::huFcSEFL2 (Pb) (Fc fusion)
chain: SHLVKCGERDKTFCVNGGECFMIEDSSNPSRYLCKCPNEFTGDRCQKDFMASFYKAEELYQGGDKTHTCPPCPAPELLGGPSVFLFPPKPKDTLMISRTPEVTCVVVDVSHEDPEVKFNWYVDGVEVHNAKTKPCEEQYGSTYRCVSVLTVLHQDWLNGKEYKCKVSNKALPAPIEKTISKAKGQPREPQVYTLPPSREEMTKNQVSLTCLVKGFYPSDIAVEWESNGQPENNYKTTPPVLDSDGSFFLYSKLTVDKSRWQQGNVFSCSVMHEALHNHYTQKSLSLSPGK
Consider B6, for which the Schwann cells (SC) (ErbB3) Avg EC50 in experiment [1] was determined as 10000 nM. Also, in experiment [2], the Cardiomyocyte (CM) (ErbB4) Avg EC50 came out at 0.996 nM and the Selectivity SC/CM is > 10000.

B7: huNRG1(S177-Q237)(2E4)::GG::huFcSEFL2 (Pb) (Fc fusion)
chain: SHLVKCGESDKSFCVNGGECFMVKRPSNPSRYLCKCPNEFTGDRCQKVFLASFYKAEELYQGGDKTHTCPPCPAPELLGGPSVFLFPPKPKDTLMISRTPEVTCVVVDVSHEDPEVKFNWYVDGVEVHNAKTKPCEEQYGSTYRCVSVLTVLHQDWLNGKEYKCKVSNKALPAPIEKTISKAKGQPREPQVYTLPPSREEMTKNQVSLTCLVKGFYPSDIAVEWESNGQPENNYKTTPPVLDSDGSFFLYSKLTVDKSRWQQGNVFSCSVMHEALHNHYTQKSLSLSPGK
Consider B7, for which the Schwann cells (SC) (ErbB3) Avg EC50 in experiment [1] stood at 61.5 nM. For the same molecule, in experiment [2], the Cardiomyocyte (CM) (ErbB4) Avg EC50 stood at 0.429 nM and the Selectivity SC/CM is 143.

B8: huNRG1(S177-Q237)(2E3)::GG::huFcSEFL2 (Pb) (Fc fusion)
chain: SHLVKCGEKEKSFCVNGGECYMIEGLSIPSRFLCKCPNEFTGDRCQDVFMASFYKAEELYQGGDKTHTCPPCPAPELLGGPSVFLFPPKPKDTLMISRTPEVTCVVVDVSHEDPEVKFNWYVDGVEVHNAKTKPCEEQYGSTYRCVSVLTVLHQDWLNGKEYKCKVSNKALPAPIEKTISKAKGQPREPQVYTLPPSREEMTKNQVSLTCLVKGFYPSDIAVEWESNGQPENNYKTTPPVLDSDGSFFLYSKLTVDKSRWQQGNVFSCSVMHEALHNHYTQKSLSLSPGK
The molecule B8 registered a Schwann cells (SC) (ErbB3) Avg EC50 in experiment [1] of 1000 nM. For the same molecule, in experiment [2], the CM % Agonism AVG is < 50%, the Cardiomyocyte (CM) (ErbB4) Avg EC50 turned out to be 0.658 nM and the Selectivity SC/CM worked out at 1520.

B9: huNRG1(S177-Q237)(1A7)::GG::huFcSEFL2 (Pb) (Fc fusion)
chain: SHLVKCAERDKSFCVNGGECYVIEHLSNPSRFLCKCPNEFTGDRCQKDFMASFYKAEELYQGGDKTHTCPPCPAPELLGGPSVFLFPPKPKDTLMISRTPEVTCVVVDVSHEDPEVKFNWYVDGVEVHNAKTKPCEEQYGSTYRCVSVLTVLHQDWLNGKEYKCKVSNKALPAPIEKTISKAKGQPREPQVYTLPPSREEMTKNQVSLTCLVKGFYPSDIAVEWESNGQPENNYKTTPPVLDSDGSFFLYSKLTVDKSRWQQGNVFSCSVMHEALHNHYTQKSLSLSPGK
In turn, B9 returned a Schwann cells (SC) (ErbB3) Avg EC50 in experiment [1] of 1000 nM. In addition, in experiment [2], the Cardiomyocyte (CM) (ErbB4) Avg EC50 is 0.619 nM and the Selectivity SC/CM is 1620.

B10: huNRG1(S177-Q237)(1A12)::GG::huFcSEFL2 (Pb) (Fc fusion)
chain: SHLVKCAEKHKSFCVNGGECYVVERPSIPSRYLCKCPNEFTGDRCQKFFMASFYKAEELYQGGDKTHTCPPCPAPELLGGPSVFLFPPKPKDTLMISRTPEVTCVVVDVSHEDPEVKFNWYVDGVEVHNAKTKPCEEQYGSTYRCVSVLTVLHQDWLNGKEYKCKVSNKALPAPIEKTISKAKGQPREPQVYTLPPSREEMTKNQVSLTCLVKGFYPSDIAVEWESNGQPENNYKTTPPVLDSDGSFFLYSKLTVDKSRWQQGNVFSCSVMHEALHNHYTQKSLSLSPGK
B10: in experiment [1], the Schwann cells (SC) (ErbB3) Avg EC50 was 47.9 nM. Also, in experiment [2], the Cardiomyocyte (CM) (ErbB4) Avg EC50 was 0.722 nM and the Selectivity SC/CM amounted to 66.
